Values belong to the binder of their own block, whether it stands above or below them. Square brackets hold non-standard residues; d marks the D form. Ends that are not written are not given here. fluorescein = fluorescein-6-aminohexanoyl (F-Ahx); pS = N[C@@H](COP(=O)(O)O)C(=O)O; Ahx = NCCCCCC(=O)O
How the values were obtained:
Conditions in all cases: both partners purified
[1] = target: T1, Smad2 wild type, full length (UniProt Q62432 1-467); experiment: fluorescence polarisation; fluorescence anisotropy as a1, in the presence of 50 μM POPC/POPS/PI(4,5)P2 (77:20:3) LUVs
T1 construct: Smad2, full length (FL), bacterially expressed from pET-30a; also called Smad2 WT; Smad2-FL; source: E. coli BL21 RIL codon plus, purified (Ni-NTA)

[2] = target: T1, Smad2 wild type, full length; experiment: fluorescence polarisation; fluorescence anisotropy; F-Ahx-labelled peptide fixed (2.5 μM in the methods, 2.5 nM in the legend), Smad2 WT or mutant varied (0-250 μM in the methods, 0-150 μM in the legend); 20 mM Tris pH 7.9, 160 mM NaCl; 10 min incubation
[3] = target: T1, Smad2 wild type, full length; experiment: as above; remark: listed apart in the source
Smad2-K420A = target: T2, Smad2-K420A (UniProt Q62432 1-467, K420A); experiment: as above
T2 construct: Smad2, full length, point mutant K420A; source: E. coli BL21 RIL codon plus, purified (Ni-NTA)

Smad2-W422A = target: T3, Smad2-W422A (UniProt Q62432 1-467, W422A); experiment: as above
T3 construct: Smad2, full length, point mutant W422A; source: E. coli BL21 RIL codon plus, purified (Ni-NTA)

Smad2-E425K = target: T4, Smad2-E425K (UniProt Q62432 1-467, E425K); experiment: as above
T4 construct: Smad2, full length, charge-reversal point mutant E425K; source: E. coli BL21 RIL codon plus, purified (Ni-NTA)

Smad2-Y426A = target: T5, Smad2-Y426A (UniProt Q62432 1-467, Y426A); experiment: as above
T5 construct: Smad2, full length, point mutant Y426A; source: E. coli BL21 RIL codon plus, purified (Ni-NTA)

Smad2-R427A/R428A = target: T6, Smad2-R427A/R428A (UniProt Q62432 1-467, R427A | R428A); experiment: as above
T6 construct: Smad2, full length, double mutant R427A/R428A; also called RR/AA; source: E. coli BL21 RIL codon plus, purified (Ni-NTA)
T6 sequence (Q62432 whole entry R427A/R428A): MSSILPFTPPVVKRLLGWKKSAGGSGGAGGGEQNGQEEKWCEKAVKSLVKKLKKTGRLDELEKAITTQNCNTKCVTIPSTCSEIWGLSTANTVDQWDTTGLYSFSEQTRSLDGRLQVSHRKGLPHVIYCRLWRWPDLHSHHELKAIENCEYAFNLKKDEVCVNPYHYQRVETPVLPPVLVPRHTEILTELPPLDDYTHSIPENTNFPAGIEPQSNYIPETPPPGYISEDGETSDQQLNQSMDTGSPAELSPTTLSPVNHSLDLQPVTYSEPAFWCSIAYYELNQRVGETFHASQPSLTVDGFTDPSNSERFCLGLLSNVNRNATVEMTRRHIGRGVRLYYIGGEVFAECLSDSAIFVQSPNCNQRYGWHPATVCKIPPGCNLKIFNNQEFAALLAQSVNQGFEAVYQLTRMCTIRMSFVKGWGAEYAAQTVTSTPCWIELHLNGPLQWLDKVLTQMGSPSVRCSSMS

T1 sequence (Q62432 whole entry): as the sequence (Q62432 whole entry R427A/R428A) above, with A427R, A428R counted along it
T3 sequence (Q62432 whole entry W422A): as the sequence (Q62432 whole entry R427A/R428A) above, with W422A, A427R, A428R counted along it
T4 sequence (Q62432 whole entry E425K): as the sequence (Q62432 whole entry R427A/R428A) above, with E425K, A427R, A428R counted along it
T2 sequence (Q62432 whole entry K420A): as the sequence (Q62432 whole entry R427A/R428A) above, with K420A, A427R, A428R counted along it
T5 sequence (Q62432 whole entry Y426A): as the sequence (Q62432 whole entry R427A/R428A) above, with Y426A, A427R, A428R counted along it

- Kd [1]: 0.06 ± 0.007 µM
- Kd [2]: 0.02 ± 0.006 µM
- Kd [3]: 20 µM
- Kd (Smad2-K420A): 200 µM
- Kd (Smad2-W422A): 21 µM
- Kd (Smad2-E425K): 8 µM
- Kd (Smad2-Y426A): 20 µM
- Kd (Smad2-R427A/R428A): 44 µM
B1: TβRI GS region peptide (F-Ahx-YDMTTpSGpSGpSGLPLL) (peptide)
peptide: {fluorescein-Ahx}-YDMTT[pS]G[pS]G[pS]GLPLL
notes: type I TGF-β receptor (TβRI), GS region, triply phosphorylated; also called GS peptide; TβRI peptide; source: synthetic peptide; bought: AlanScientific

- Kd [3]: 66 µM
- Kd (Smad2-K420A): 100 µM
- Kd (Smad2-W422A): 67 µM
- Kd (Smad2-E425K): 55 µM
- Kd (Smad2-Y426A): 70 µM
- Kd (Smad2-R427A/R428A): 75 µM
B2: TβRI L45 loop region peptide (F-Ahx-ADNKDNGT) (peptide)
peptide: {fluorescein-Ahx}-ADNKDNGT
notes: type I TGF-β receptor (TβRI), L45 loop; also called L45 peptide; L45 loop peptide; source: synthetic peptide; bought: AlanScientific

From publication PMC8567202, “Phosphoinositide-binding activity of Smad2 is essential for its function in TGF-β signaling” (The Journal of Biological Chemistry, 2021)
